{
  "source": "patent US20160030477",
  "test_in_all_cases": "cell_activity",
  "key": {"[1]": {"tested_on": "ZFN 50773 (synthetic)", "conditions": "pair 50773/49812, K562, AAV6 donor"}, "[2]": {"tested_on": "ZFN 49812 (synthetic)", "conditions": "pair 50773/49812, K562, AAV6 donor"}, "[3]": {"tested_on": "ZFN 44271 (synthetic)", "conditions": "pair 44298:44271, K562, day 3 (36.6% day 10; GFP 0.2%)"}, "[4]": {"tested_on": "ZFN 44298 (synthetic)", "conditions": "pair 44298:44271, K562, day 3 (36.6% day 10; GFP 0.2%)"}},
  "data": [
    {"sequence": "ATGATAAAGCTGCAAACCCAAAGAAACT (double strand) [RAG1 site 4 (50773)]", "values": [
      {"measurement": "activity (% targeted integration)", "setting": "[1]", "result": 5}
    ]},
    {"sequence": "CTTTTATGACCCATTTGGAAGAAATAAA (double strand) [RAG1 site 4 (55002/55005/49812)]", "values": [
      {"measurement": "activity (% targeted integration)", "setting": "[2]", "result": 5}
    ]},
    {"sequence": "GCCAGTGGCAGGCACCAGATCTCTGTAC (double strand) [IL2RG 44271 site]", "values": [
      {"measurement": "activity", "setting": "[3]", "result": 42.8, "unit": "% indels"}
    ]},
    {"sequence": "TTACAATCATGTGGGCAGAATTGAAAAG (double strand) [IL2RG 44298 site]", "values": [
      {"measurement": "activity", "setting": "[4]", "result": 42.8, "unit": "% indels"}
    ]}
  ]
}
